From US20120045437A1 (BOARD OF REGENTS OF THE UNIVERSITY OF OKLAHOMA, published 2012) come the findings set out here.

The target in one assay is T1, VLDLR-N-His (human, UniProt P98155 28-797, limits assumed).
T1 construct: domain: VLDLR-N; also called very low-density lipoprotein receptor; not shown: 6x histidine tag
Description: Western blot, recombinant VLDLR-N-His. The procedure:
(§1) FIG. 15 illustrates specificity of Anti-LRP6-1 on LRP6 ectodomain. A: HEK-293T cells were separately transfected with plasmids expressing LRP5-Flag and LRP6-Myc, with an empty vector as control. Forty-eight hours post-transfection, total cell lysates (50 μg) were applied for Western blot analysis using Anti-LRP6-1 and an anti-Flag antibody (M2). B: The ability of Anti-LRP6-1 to recognize endogenous LRP6 in different species. Total cell lysates (50 μg) from each cell line were applied for Western blot analysis using Anti-LRP6-1. C: Conditioned media containing LDLRN-Myc, LRP5N-Myc and LRP6N-Myc, and purified recombinant peptides of VLDLR-N-His, LRP6E1E2-His and LRP6E3E4-His were loaded for Western blot analysis using Anti-LRP6-1, anti-His and anti-Myc antibodies. D: Immuno-localization of LRP6 in the retinal cryosections. FITC-labeled Anti-LRP6-1 was used to determine the cellular localization of LRP6 in the retinas of rats (D1-D6) and mice (D7-D12). Non-specific mouse IgG was labeled with FITC and used as a negative control (D1, D4, D7, D10). The sections were stained with FITC-Anti-LRP6-1 (D2, D5, D8, D11). FITC-Anti-LRP6-1 pre-absorbed with 10 μg/ml purified LRP6E1E2-His antigen was used for staining to confirm the specificity of the immunosignals of LRP6 (D3, D6, D9, D12).
(Immunoblotting shows a protein as a band on a membrane.)

For assay [1], the target named is endogenous bovine LRP6 (bovine). Description: cell-based or functional assay.
The target of a further assay is endogenous human LRP6 (human, UniProt O75581 20-1613). Description: cell-based or functional assay.
endogenous human LRP6, sequence (O75581 20-1613 limits assumed): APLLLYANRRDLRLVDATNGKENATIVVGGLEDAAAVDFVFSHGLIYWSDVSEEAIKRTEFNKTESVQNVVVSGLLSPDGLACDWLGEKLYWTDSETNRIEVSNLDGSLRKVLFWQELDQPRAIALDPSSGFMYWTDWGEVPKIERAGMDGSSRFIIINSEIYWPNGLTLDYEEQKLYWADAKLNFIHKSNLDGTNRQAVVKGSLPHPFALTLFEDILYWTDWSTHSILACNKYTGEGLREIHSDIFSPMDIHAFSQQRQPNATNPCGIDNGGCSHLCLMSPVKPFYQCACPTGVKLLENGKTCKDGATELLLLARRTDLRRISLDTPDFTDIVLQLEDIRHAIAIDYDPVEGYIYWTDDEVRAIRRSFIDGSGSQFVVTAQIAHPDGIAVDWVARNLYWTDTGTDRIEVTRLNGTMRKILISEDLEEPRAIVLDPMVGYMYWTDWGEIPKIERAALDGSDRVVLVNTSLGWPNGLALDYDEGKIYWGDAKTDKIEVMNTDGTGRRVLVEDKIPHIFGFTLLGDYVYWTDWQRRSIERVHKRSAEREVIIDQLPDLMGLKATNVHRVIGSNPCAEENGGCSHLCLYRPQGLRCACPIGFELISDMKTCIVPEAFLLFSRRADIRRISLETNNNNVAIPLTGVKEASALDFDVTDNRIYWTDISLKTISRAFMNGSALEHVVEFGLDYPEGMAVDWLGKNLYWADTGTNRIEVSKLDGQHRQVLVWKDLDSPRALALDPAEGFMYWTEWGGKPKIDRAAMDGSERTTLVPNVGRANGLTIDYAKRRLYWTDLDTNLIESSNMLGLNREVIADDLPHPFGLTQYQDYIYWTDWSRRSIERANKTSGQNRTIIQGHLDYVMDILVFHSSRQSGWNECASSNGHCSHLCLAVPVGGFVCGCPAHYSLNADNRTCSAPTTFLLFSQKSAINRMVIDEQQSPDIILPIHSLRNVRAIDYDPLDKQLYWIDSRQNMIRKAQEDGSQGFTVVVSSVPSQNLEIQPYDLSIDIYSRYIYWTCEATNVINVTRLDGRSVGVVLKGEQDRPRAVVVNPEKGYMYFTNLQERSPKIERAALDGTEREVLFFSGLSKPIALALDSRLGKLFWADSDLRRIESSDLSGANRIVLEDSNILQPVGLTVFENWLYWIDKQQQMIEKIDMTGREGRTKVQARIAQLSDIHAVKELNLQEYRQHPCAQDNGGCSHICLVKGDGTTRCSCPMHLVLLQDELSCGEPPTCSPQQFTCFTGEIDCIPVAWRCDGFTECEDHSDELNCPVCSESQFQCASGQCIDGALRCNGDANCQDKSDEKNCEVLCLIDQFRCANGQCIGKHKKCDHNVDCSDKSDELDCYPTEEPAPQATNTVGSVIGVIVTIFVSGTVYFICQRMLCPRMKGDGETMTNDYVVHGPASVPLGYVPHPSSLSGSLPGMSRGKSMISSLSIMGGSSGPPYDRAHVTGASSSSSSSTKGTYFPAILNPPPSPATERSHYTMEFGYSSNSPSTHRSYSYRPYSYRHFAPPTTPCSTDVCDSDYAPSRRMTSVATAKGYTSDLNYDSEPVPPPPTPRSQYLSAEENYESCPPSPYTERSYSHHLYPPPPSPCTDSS
The next assay deals with T2, LRP6E3E4-His (human, UniProt O75581 631-1244).
T2 construct: Expressed in E. coli BL21(DE3); Only its E3E4 part stood in the assay; also called E3E4 domain of LRP6; not shown: His tag from pET28b+
T2 sequence: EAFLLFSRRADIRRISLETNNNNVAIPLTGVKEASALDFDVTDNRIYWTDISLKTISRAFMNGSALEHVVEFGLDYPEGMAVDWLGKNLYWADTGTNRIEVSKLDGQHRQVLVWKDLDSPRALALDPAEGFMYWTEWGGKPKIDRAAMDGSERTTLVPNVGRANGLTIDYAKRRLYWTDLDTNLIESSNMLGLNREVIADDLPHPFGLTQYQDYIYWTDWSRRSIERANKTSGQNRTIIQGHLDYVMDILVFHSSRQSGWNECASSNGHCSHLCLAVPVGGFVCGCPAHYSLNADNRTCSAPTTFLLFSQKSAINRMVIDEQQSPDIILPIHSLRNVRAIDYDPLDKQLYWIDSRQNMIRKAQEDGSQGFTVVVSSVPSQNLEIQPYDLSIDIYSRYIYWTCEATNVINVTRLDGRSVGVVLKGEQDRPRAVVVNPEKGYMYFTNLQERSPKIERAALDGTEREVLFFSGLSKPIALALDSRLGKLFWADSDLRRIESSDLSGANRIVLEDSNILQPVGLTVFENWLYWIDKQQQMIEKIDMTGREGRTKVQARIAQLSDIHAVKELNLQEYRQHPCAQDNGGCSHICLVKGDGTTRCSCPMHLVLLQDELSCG
Description: Western blot, purified recombinant fragment. The procedure: as §1

Assay [2] addresses T3, LRP5-Flag (human full-length LRP5) (human, UniProt O75197 32-1615).
T3 construct: Tested as total lysate of transfected HEK-293T cells in a Western blot; not shown: Flag tag
The assay is described as follows: Western blot, total lysates (50 ug) of transfected HEK-293T cells. As for the experimental part: as §1, with “A: HEK-293T” for “FIG. 15 illustrates specificity of Anti-LRP6-1 on LRP6 ectodomain. A: HEK-293T”, “D9, D12). […]” for “D9, D12).”

In the next assay the target is T4, endogenous mouse LRP6 (mouse, UniProt O88572 20-1613).
T4 construct: whole, on cells; Tested as total cell lysate (Western blot) and in mouse retinal cryosections (immunostaining); also called LRP6 (mouse)
T4 sequence (O88572 20-1613): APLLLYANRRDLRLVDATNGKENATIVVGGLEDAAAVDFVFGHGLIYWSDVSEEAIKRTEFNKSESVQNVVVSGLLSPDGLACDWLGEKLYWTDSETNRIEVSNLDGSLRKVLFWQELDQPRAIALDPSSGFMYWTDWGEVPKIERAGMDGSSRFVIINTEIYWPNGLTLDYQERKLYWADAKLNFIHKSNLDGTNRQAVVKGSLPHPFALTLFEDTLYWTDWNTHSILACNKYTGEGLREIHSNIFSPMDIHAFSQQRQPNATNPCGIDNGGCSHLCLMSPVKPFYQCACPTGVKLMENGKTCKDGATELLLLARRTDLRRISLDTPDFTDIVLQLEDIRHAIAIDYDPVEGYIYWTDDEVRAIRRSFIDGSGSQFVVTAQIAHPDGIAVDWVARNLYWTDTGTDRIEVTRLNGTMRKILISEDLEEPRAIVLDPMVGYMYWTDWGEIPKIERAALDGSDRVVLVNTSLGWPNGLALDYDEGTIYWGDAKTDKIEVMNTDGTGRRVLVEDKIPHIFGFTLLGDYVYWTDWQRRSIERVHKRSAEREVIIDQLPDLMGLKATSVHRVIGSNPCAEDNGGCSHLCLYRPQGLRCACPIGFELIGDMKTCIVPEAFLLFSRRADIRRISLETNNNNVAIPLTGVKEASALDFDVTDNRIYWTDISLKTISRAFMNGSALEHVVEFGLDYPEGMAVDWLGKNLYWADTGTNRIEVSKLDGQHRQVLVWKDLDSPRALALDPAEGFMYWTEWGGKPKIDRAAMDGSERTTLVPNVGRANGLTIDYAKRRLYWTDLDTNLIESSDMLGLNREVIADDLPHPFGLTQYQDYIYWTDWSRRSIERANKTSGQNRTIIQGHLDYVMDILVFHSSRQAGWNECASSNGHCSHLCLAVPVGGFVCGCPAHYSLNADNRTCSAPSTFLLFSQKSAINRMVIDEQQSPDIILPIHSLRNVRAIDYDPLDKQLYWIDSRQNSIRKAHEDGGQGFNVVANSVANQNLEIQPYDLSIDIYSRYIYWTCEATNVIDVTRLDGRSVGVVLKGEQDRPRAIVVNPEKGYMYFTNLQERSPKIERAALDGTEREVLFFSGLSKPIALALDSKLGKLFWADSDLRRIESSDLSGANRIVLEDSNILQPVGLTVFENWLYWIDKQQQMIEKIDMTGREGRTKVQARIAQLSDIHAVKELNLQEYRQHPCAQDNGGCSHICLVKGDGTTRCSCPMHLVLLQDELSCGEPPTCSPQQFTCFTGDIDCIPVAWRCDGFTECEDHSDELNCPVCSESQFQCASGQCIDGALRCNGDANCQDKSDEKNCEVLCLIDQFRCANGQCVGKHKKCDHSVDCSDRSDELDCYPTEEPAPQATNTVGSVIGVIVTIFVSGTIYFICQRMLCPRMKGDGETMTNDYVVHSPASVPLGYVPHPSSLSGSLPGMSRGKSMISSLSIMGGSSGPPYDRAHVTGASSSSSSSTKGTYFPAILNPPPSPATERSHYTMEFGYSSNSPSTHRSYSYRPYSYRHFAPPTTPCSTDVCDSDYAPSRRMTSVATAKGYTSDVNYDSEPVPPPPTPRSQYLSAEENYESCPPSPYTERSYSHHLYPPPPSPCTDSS
The assay is described as follows: Western blot, total cell lysates. As for the experimental part: as §1, with “A: HEK-293T” for “FIG. 15 illustrates specificity of Anti-LRP6-1 on LRP6 ectodomain. A: HEK-293T”, “D9, D12). […]” for “D9, D12).”

T3 sequence (O75197 32-1615 limits assumed): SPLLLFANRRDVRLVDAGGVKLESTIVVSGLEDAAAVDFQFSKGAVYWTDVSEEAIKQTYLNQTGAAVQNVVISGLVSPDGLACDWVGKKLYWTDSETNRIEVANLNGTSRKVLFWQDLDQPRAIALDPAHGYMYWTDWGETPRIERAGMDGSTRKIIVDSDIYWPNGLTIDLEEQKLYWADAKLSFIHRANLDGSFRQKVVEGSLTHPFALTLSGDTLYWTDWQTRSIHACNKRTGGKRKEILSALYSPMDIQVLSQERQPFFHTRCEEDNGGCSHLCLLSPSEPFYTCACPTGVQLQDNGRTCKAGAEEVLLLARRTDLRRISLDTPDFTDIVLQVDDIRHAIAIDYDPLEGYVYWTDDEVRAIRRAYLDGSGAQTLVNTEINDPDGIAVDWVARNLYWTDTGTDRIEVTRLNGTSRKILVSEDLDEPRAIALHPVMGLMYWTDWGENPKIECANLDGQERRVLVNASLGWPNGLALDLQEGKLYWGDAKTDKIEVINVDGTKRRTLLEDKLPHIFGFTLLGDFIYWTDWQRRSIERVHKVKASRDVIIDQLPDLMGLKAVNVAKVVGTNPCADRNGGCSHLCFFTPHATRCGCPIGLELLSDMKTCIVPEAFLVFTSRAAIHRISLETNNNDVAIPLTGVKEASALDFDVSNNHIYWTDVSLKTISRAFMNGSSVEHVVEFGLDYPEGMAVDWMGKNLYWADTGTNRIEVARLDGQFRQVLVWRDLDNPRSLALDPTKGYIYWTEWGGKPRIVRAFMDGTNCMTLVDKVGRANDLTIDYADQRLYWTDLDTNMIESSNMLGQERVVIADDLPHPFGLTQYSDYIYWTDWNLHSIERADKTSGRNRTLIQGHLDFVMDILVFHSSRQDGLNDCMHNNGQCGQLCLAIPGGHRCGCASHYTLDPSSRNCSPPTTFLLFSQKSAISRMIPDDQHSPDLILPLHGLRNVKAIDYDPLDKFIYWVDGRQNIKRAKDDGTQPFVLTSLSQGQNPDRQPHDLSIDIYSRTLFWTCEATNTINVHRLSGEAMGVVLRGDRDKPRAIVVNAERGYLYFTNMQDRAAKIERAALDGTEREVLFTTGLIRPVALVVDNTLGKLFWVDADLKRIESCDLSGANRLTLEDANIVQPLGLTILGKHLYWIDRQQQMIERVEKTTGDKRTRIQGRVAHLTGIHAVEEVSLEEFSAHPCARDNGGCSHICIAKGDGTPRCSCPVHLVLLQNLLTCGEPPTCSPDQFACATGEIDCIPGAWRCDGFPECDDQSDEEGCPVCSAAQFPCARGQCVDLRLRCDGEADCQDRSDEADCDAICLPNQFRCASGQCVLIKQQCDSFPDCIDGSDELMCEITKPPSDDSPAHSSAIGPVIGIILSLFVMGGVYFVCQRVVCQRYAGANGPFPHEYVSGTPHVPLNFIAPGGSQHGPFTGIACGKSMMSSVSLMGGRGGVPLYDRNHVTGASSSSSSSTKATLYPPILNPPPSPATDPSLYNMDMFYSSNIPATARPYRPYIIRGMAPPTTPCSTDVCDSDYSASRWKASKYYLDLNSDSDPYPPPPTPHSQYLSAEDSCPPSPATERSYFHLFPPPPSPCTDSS

B1: Anti-LRP6-1 (antibody, mouse IgG2, V domains shown)
VH: EVQLVESGGGLVQSKGSLKLSCAASGFTFNTYAMNWVRQAPGKGLEWVGRIRSKYNNYVTYYGDSVKDRFTISRDDSQSMLYLQMNNLKTEDTAMYYCVRQGRGSYAMDYWGQGTSVTVSS
VL: NIVMTQSPKSMSMSVGERVTLSCKASENVGTYVSWYQQKPEQSPKLLIYGASNRYTGVPDRFIGSGSATDFTLTIRSVQAEDLADYHCGQSYSYPTFGAGTKLELKR
notes: also called mAb2F1; 2F1
On to B1, for which the binding result in the assay with VLDLR-N-His was “no binding”; with LRP6E3E4-His, “no binding”; in assay [2], “no binding”; in the assay with endogenous mouse LRP6 it was “binds”. For the same molecule, the IC50 of inhibition of LRP6 phosphorylation (Wnt3a-containing medium, RCEC, Western blot) in assay [1] lay in the range of 210 to 440 nM. In addition, the IC50 of inhibition of [14C]thymidine incorporation into RCEC (proliferation, 1% O2) in assay [1] fell in the range of 500 to 2000 nM. Further, the “EC50 of inhibition of Wnt1-induced TOPFLASH activity (hTERT-RPE cells)” value in the assay with endogenous human LRP6 is around 20 µg/mL. The “EC50 of suppression of Wnt3A-induced Luciferase activity (TOPFLASH, hTERT-RPE cells)” value in the assay with endogenous human LRP6 is around 20 µg/mL.
